From patent US20200362021A1 (PHANES THERAPEUTICS, published 2020)
No end group written: not given here. *: point of attachment. Biotin = O=C1N[C@H]2[C@H](CS[C@H]2CCCCC(=O)*)N1

Experiments:
[1] = target: T1, apelin peptide 1-6 (QRPRLS); assay: competition ELISA, captured mAb, peptide competes with apelin-13-biotin, A405
T1 peptide: QRPRLS

[2] = target: T2, apelin peptide 1-12 (QRPRLSHKGPMP); assay: as above
T2 peptide: QRPRLSHKGPMP

1-4 = target: T3, 1-4; assay: as above
T3 construct: also called apelin peptide 1-4 (QRPR)
T3 peptide: QRPR

[3] = target: T4, apelin 17 (competition peptide 1-17, KFRRQRPRLSHKGPMPF); assay: as above
T4 peptide: KFRRQRPRLSHKGPMPF

[4] = target: T5, apelin peptide 1-7 (QRPRLSH); assay: as above
T5 peptide: QRPRLSH

[5] = target: T6, apelin peptide 1-8 (QRPRLSHK); assay: as above
T6 peptide: QRPRLSHK

[6] = target: T7, apelin peptide 1-5 (QRPRL); assay: as above
T7 peptide: QRPRL

[7] = target: T8, apelin peptide 2-13 (RPRLSHKGPMPF); assay: as above
T8 peptide: RPRLSHKGPMPF

[8] = target: T9, apelin peptide 1-9 (QRPRLSHKG); assay: as above
T9 peptide: QRPRLSHKG

[9] = target: T10, apelin peptide 1-10 (QRPRLSHKGP); assay: as above
T10 peptide: QRPRLSHKGP

[10] = target: T11, apelin peptide 1-11 (QRPRLSHKGPM); assay: as above
T11 peptide: QRPRLSHKGPM

[11] = target: T12, apelin-13-biotin (…-biotin) (C-terminal biotin); assay: SPR (Biacore), apelin-13-biotin on streptavidin chip
T12 construct: also called APL13-Biotin
Description: (§1) Anti-apelin mAbs at four different concentrations (12.5 nM, 25 nM, 50 nM and 100 nM) were captured on the chip surface. The on- and off-rate for antibody-antigen binding were measured, curve fitted and calculated.

[12] = target: T13, alanine scanning peptide 3A (QRARL); assay: competition ELISA, captured mAb, peptide competes with apelin-13-biotin, A405
T13 peptide: QRARL
Description: (§2) Each peptide or control sample was assayed in duplicate for a given mAb.

[13] = target: T14, alanine scanning peptide 4A (QRPAL); assay: as above
T14 peptide: QRPAL
Description: as §2

[14] = target: T15, alanine scanning peptide 1A (ARPRL); assay: as above
T15 peptide: ARPRL
Description: as §2

[15] = target: T16, alanine scanning peptide 2A (QAPRL); assay: as above
T16 peptide: QAPRL
Description: as §2

[16] = target: T17, alanine scanning peptide 5A (QRPRA); assay: as above
T17 peptide: QRPRA
Description: as §2

Biotin-APL17 = target: T18, Biotin-APL17; assay: ELISA, peptide on neutravidin plate, mAb 200 ng/ml, A405
T18 peptide: Biotin-KFRRQRPRLSHKGPMPF

APL17-Biotin = target: T19, APL17-Biotin; assay: as above
T19 peptide: KFRRQRPRLSHKGPMPF-biotin

[17] = target: T20, pyr-apelin-13-biotin (pE-RPRLSHKGPMPF-biotin) (N-terminal pyroglutamate (pE); C-terminal biotin); assay: SPR (Biacore), pyr-apelin-13-biotin on streptavidin chip
T20 construct: also called pyrAPL13-Biotin
T20 peptide: ERPRLSHKGPMPF
Description: as §1

B1: anti-apelin mAb C7 (antibody, V domains shown)
VH: QSLEESGGRLAKPDETLTLTCTVSGIDLNSHAMDWVRQAPGKGLEWIGVIAPDTRTYYATWARGRFTISKTSSTSVELKMTSLTTEDTATYFCAAYPIEPGANIWGPGTLVTVSS
VL: DPVLTQTPSPVSAPVGGTVTIGCQASESVDYNNQLSWYQQKPGQAPKRLMYYVSTLDSGVPSRFKGSGSGTQFTLTISDLECDDAATYYCQGGYPYNIYPFGGGTEVVVK
notes: recombinant rabbit IgG made in HEK293 cells
B1: binds [1]; binds [2]; no binding (tested: peptide concentration not stated) (1-4). B1: no binding (tested: peptide concentration not stated) [3]; binds [4]; binds [5]. B1: binds [6]; no binding (tested: peptide concentration not stated) [7]; binds [8]. The binding result [9] was “binds”, the binding result [10] was “binds” and the Kd [11] was 3.14 pM. B1: no binding (tested: peptide concentration not stated) [12]; no binding (tested: peptide concentration not stated) [13]; no binding (tested: peptide concentration not stated) [14]. B1: no binding (tested: peptide concentration not stated) [15]; no binding (tested: peptide concentration not stated) [16]; no binding (tested: 200 ng/ml) (Biotin-APL17). The binding result (APL17-Biotin) was “no binding (tested: 200 ng/ml)” and the Kd [17] was 0.326 pM.
